The target of experiment [1] is T1, human CD70 on cells (CD70-positive 786-O cells, Raji cells, CHO-S cells expressing human full-length CD70, … (human, UniProt P32970 1-193)).
T1 sequence (looked up): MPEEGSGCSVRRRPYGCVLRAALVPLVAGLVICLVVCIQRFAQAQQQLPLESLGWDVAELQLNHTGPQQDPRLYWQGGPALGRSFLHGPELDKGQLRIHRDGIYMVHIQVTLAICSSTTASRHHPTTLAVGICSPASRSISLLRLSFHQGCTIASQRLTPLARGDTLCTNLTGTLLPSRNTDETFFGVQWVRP
Kind of experiment: cell-based or functional assay.

Experiment [2] concerns the target T1, human CD70 on cells (CD70-positive …). Briefly: flow cytometry on CD70-positive 786-O cells, Alexa Fluor 488 goat anti-human (H+L) detection. The protocol: (§1) 786-O cells (ATCC, CRL-1932) or Raji cells (ATCC, CCL-86) at 1×10⁶ cells/mL were blocked with 1% BSA PBS buffer, followed by the addition of diluted anti-CD70 antibody samples at different concentrations were added, and the mixture was incubated for 1 h. After the plate was washed twice, Alexa Fluor 488-goat anti-human (H+L) antibody (Invitrogen, CAT #A 11013) was added, and the mixture was incubated for 1 h. After the plate was washed twice, fluorescence signals were read using a flow cytometer.
For orientation: Flow cytometry measures light scatter and fluorescence of single cells or particles in a stream.

For experiment [3] the target is unchanged. Kind of experiment: flow cytometry on CD70-positive Raji cells, Alexa Fluor 488 goat anti-human (H+L) detection. The protocol:
as §1

The target is the same in experiment [4]. Briefly: flow cytometry competition on CHO-S cells expressing human full-length CD70; blocked ligand: biotin-labeled CD27-Fc, Alexa Fluor 488 streptavidin detection. The protocol:
The cell-blocking activity of the anti-CD70 antibodies was assayed by flow cytometry. CHO-S cells expressing human full-length CD70 (Invitrogen, R80007) at 1×10⁶ cells/mL were blocked with 1% BSA PBS buffer, followed by the addition with diluted anti-CD70 antibody samples at different concentrations and biotin-labeled CD27-Fc (set forth in SEQ ID NO: 84), and the mixture was incubated for 1 h. After the plate was washed twice, Alexa Fluor 488-streptavidin (Invitrogen, CAT #S11223) was added, and the mixture was incubated for 1 h. After the plate was washed twice, fluorescence signals were read using a flow cytometer.

Experiment [5] deals with T2, His-tagged CD70 protein extracellular domain (His-TNC-CD70) (human).
T2 construct: Expressed in 293 cells; also called human His-TNC-CD70 antigen; human CD70 antigen
T2 chain: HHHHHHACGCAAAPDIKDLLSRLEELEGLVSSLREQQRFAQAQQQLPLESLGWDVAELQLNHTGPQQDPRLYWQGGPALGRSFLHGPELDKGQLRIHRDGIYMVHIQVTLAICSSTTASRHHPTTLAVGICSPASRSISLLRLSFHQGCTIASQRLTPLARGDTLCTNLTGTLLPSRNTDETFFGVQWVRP
Briefly: SPR Biacore T200, antibody captured by anti-human Fc, His-TNC-CD70 in flow, 1:1 model. How it is done: The affinity of the chimeric and humanized antibodies of the present disclosure for the human CD70 antigen was tested using a Biacore instrument. The procedures are as follows:
The human Fc capture molecules were covalently coupled to a CM5 biosensor chip (CAT #BR-1005-30, GE) according to the method described in the instructions of the human Fc capture kit (CAT #BR-1008-39, GE) for affinity capture of the antibodies to be tested. Then, a human His-TNC-CD70 antigen (set forth in SEQ ID NO: 1) flowed through the surface of the chip, and the reaction signal was detected in real time using a Biacore T200 instrument to obtain association and dissociation curves. After the dissociation was completed for each cycle, the biochip was washed and regenerated with a regeneration solution configured in the human antibody capture kit (GE). Data were fitted using a 1:1 model.

Experiment [6] addresses fusion protein of the CD70 protein extracellular domain and Human-IgG1-Fc (human CD70-Fc) (human). Kind of experiment: ELISA, plate coated with 1 µg/mL human CD70-Fc, HRP goat anti-human F(ab')2 detection. The protocol:
(§2) The binding ability of the anti-CD70 antibodies was determined by the amount of the antibodies bound to the CD70 antigen protein immobilized on the ELISA plate. 1 μg/mL human CD70-Fc (set forth in SEQ ID NO: 2), monkey CD70-Fc (set forth in SEQ ID NO: 82) and mouse CD70-Fc (set forth in SEQ ID NO: 83) were coated, incubated and blocked. […] OD450 values were measured on a microplate reader.
In general terms: In an ELISA, binding on a coated surface is turned into a signal by an enzyme label.

Experiment [7] deals with T3, fusion protein of the monkey CD70 protein extracellular domain and Human-IgG1-Fc (monkey CD70-Fc) (monkey).
T3 construct: also called monkey CD70 antigen
Kind of experiment: ELISA, plate coated with 1 µg/mL monkey CD70-Fc, HRP goat anti-human F(ab')2 detection. How it is done: as §2

In experiment [8] the target is T4, fusion protein of the murine CD70 protein extracellular domain and Human-IgG1-Fc (mouse CD70-Fc) (mouse).
T4 construct: also called mouse CD70 antigen
Briefly: ELISA, plate coated with 1 µg/mL mouse CD70-Fc, HRP goat anti-human F(ab')2 detection. How it is done: as §2

The values below come from patent US20230257472A1 (JIANGSU HENGRUI MEDICINE, published 2023).

As usually defined, the EC50 (read off the curve) is the concentration needed to bring the measured effect to its halfway point. As a reminder, the Kd is a measure of binding affinity in units of concentration. What is called koff is the first-order rate constant of dissociation. By kon is commonly meant the rate constant with which the complex forms.

Sequence of fusion protein of the CD70 protein extracellular domain and Human-IgG1-Fc (human CD70-Fc) (human) (chain, as listed by the source limits assumed): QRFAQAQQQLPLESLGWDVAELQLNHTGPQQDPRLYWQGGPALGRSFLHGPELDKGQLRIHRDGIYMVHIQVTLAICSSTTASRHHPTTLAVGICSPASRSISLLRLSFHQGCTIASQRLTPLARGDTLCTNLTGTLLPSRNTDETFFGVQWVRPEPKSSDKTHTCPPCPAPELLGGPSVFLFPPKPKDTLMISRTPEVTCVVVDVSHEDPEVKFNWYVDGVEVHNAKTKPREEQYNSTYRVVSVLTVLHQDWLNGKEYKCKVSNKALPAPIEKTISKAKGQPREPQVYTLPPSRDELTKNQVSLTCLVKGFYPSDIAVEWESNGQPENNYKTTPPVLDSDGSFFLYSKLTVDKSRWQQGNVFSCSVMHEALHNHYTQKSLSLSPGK
T4 sequence (chain, as listed by the source limits assumed): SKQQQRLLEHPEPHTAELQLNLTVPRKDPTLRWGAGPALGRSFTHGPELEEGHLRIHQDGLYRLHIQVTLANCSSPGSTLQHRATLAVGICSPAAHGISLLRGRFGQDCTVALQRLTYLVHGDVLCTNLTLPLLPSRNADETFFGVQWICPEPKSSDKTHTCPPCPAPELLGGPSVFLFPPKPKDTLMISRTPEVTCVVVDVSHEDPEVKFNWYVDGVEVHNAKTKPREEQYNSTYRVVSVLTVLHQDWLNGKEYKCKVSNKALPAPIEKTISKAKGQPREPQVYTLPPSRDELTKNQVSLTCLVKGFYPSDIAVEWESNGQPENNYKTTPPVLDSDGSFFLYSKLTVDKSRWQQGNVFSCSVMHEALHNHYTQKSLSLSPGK
T3 sequence (chain, as listed by the source limits assumed): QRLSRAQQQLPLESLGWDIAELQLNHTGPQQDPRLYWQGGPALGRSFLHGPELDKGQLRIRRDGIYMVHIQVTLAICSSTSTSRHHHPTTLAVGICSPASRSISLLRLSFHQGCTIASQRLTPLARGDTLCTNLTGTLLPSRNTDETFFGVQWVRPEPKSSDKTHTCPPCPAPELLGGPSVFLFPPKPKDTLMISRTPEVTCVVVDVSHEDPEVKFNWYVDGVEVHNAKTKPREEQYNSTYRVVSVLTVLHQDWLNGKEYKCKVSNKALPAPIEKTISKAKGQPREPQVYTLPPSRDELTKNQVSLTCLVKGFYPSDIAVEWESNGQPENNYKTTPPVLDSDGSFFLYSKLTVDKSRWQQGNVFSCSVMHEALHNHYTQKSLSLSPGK

B1: 41D12 (positive control antibody, see WO2012123586) (antibody, human IgG1, lambda, V domains shown)
VH: EVQLVESGGGLVQPGGSLRLSCAASGFTFSVYYMNWVRQAPGKGLEWVSDINNEGGTTYYADSVKGRFTISRDNSKNSLYLQMNSLRAEDTAVYYCARDAGYSNHVPIFDSWGQGTLVTVSS
VL: QAVVTQEPSLTVSPGGTVTLTCGLKSGSVTSDNFPTWYQQTPGQAPRLLIYNTNTRHSGVPDRFSGSILGNKAALTITGAQADDEAEYFCALFISNPSVEFGGGTQLTVLG
Consider B1, for which, in experiment [1], the “IC50 (ng/mL), inhibition of IL-8 secretion mediated by CD70/CD27 binding (U266 cells + HT1080/CD27 cells)” value (“IC50 (ng/mL), inhibition” for short) stood at 23.3 ng/mL and the “Imax (%), maximum inhibition rate of IL-8 secretion from CD27 cells” value (“Imax (%), maximum inhibition rate” for short) was 70.9%. For the same molecule, the “EC50 (read off the curve)” value in experiment [2] is roughly 0.03 µg/mL. In experiment [3], the “EC50 (read off the curve)” value was roughly 0.01 µg/mL.

B2: 41D12 (afuc) (antibody, human IgG1, lambda, V domains shown)
VH: EVQLVESGGGLVQPGGSLRLSCAASGFTFSVYYMNWVRQAPGKGLEWVSDINNEGGTTYYADSVKGRFTISRDNSKNSLYLQMNSLRAEDTAVYYCARDAGYSNHVPIFDSWGQGTLVTVSS
VL: QAVVTQEPSLTVSPGGTVTLTCGLKSGSVTSDNFPTWYQQTPGQAPRLLIYNTNTRHSGVPDRFSGSILGNKAALTITGAQADDEAEYFCALFISNPSVEFGGGTQLTVLG
modifications: non-fucosylated (heavy chain not modified by fucosylation)
notes: also called non-fucosylated antibody of 41D12
On to B2, for which, in experiment [1], the “IC50 (ng/mL), inhibition” value stood at 24.2 ng/mL and the “Imax (%), maximum inhibition rate” value turned out to be 71.1%. Further, in experiment [2], the “EC50 (read off the curve)” value is roughly 0.03 µg/mL. In addition, in experiment [3], the “EC50 (read off the curve)” value was roughly 0.04 µg/mL.

B3: huF4011 (afuc) (antibody, human IgG1, kappa, V domains shown)
VH: EVQLVQSGAEVKKPGSSVKVSCKASGDTFPRYNMHWVRQAPGQGLEWMGAIFPGTGETSYNQNFKGRVTLTADKSTSTAYMELSSLRSEDTAVYYCARNSYYDYAWFTYWGQGTLVTVSS
VL: DIVMTQSPDSLAVSLGERATINCRASKSVSSSGYSFMHWYQQKPGQPPKLLISLADNLESGVPDRFSGSGSGTDFTLTISSLQAEDVAVYYCQHSREFPPTFGQGTKLEIKR
modifications: non-fucosylated (heavy chain not modified by fucosylation)
notes: also called non-fucosylated antibody of huF4011
For the molecule B3, the “IC50 (ng/mL), inhibition” value in experiment [1] came to 13 ng/mL. Also, the “Imax (%), maximum inhibition rate” value in experiment [1] came out at 92.3%. In addition, the “EC50 (read off the curve)” value in experiment [2] and in experiment [3] was roughly 0.02 µg/mL throughout. Besides, the “IC50 (read off the curve)” value in experiment [4] is roughly 0.3 µg/mL.

B4: huB1010 (afuc) (antibody, human IgG1, kappa, V domains shown)
VH: EVQMVQSGAEVKKPGASVKVSCKASGYTFTTYNIHWVRQAPGQGLEWMGDIYPGTGDASYNQKFRDRVTMTRDTSTSTVYMELSSLRSEDTAVYYCATFSRFDGWFAYWGQGTLVTVSS
VL: DIVMTQSPDSLAVSLGERATINCRASRSVSTSGYSYMHWYQQKPGQPPKLLIYLADNLESGVPDRFSGSGSGTDFTLTISSLQAEDVAVYYCQHSRELPYTFGGGTKVEIKR
modifications: non-fucosylated (heavy chain not modified by fucosylation)
notes: also called non-fucosylated antibody of huB1010
As for B4, the 50% effective concentration (EC50 (read off the curve)) in experiment [2] and in experiment [3] was roughly 0.02 µg/mL throughout. The “IC50 (read off the curve)” value in experiment [4] is roughly 0.3 µg/mL.

B5: huF4011 (antibody, human IgG1, kappa, V domains shown)
VH: EVQLVQSGAEVKKPGSSVKVSCKASGDTFPRYNMHWVRQAPGQGLEWMGAIFPGTGETSYNQNFKGRVTLTADKSTSTAYMELSSLRSEDTAVYYCARNSYYDYAWFTYWGQGTLVTVSS
VL: DIVMTQSPDSLAVSLGERATINCRASKSVSSSGYSFMHWYQQKPGQPPKLLISLADNLESGVPDRFSGSGSGTDFTLTISSLQAEDVAVYYCQHSREFPPTFGQGTKLEIKR
notes: Humanized IgG1
In the case of B5, in experiment [1], the “IC50 (ng/mL), inhibition” value was found to be 14.2 ng/mL and the “Imax (%), maximum inhibition rate” value worked out at 93.8%. In experiment [5], this molecule came in with a Kd of 0.0465 nM, a koff of 0.000145 s⁻¹ and a kon of 3.12e+06 M⁻¹ s⁻¹. Also, in experiment [2], the half-maximal effective concentration (EC50 (read off the curve)) is roughly 0.03 µg/mL. Further, the “EC50 (read off the curve)” value in experiment [6] was roughly 0.03 µg/mL. Further, the “IC50 (read off the curve)” value in experiment [4] was roughly 0.4 µg/mL. For the same molecule, the “EC50 (read off the curve)” value in experiment [7] is roughly 0.05 µg/mL. Moreover, in experiment [8], the binding result is “no binding (tested: 10 µg/mL (log 1))”. Further, the “EC50 (read off the curve)” value in experiment [3] was roughly 0.02 µg/mL.

B6: huB1010 (antibody, human IgG1, kappa, V domains shown)
VH: EVQMVQSGAEVKKPGASVKVSCKASGYTFTTYNIHWVRQAPGQGLEWMGDIYPGTGDASYNQKFRDRVTMTRDTSTSTVYMELSSLRSEDTAVYYCATFSRFDGWFAYWGQGTLVTVSS
VL: DIVMTQSPDSLAVSLGERATINCRASRSVSTSGYSYMHWYQQKPGQPPKLLIYLADNLESGVPDRFSGSGSGTDFTLTISSLQAEDVAVYYCQHSRELPYTFGGGTKVEIKR
notes: Humanized IgG1
In experiment [5], B6 gave a Kd of 0.0355 nM. The koff in experiment [5] came to 0.00013 s⁻¹. Also, the on-rate constant (kon) in experiment [5] was 3.67e+06 M⁻¹ s⁻¹. The “EC50 (read off the curve)” value is roughly 0.02 µg/mL in experiment [2], roughly 0.04 µg/mL in experiment [6] and roughly 0.02 µg/mL in experiment [3]. For the same molecule, the “IC50 (read off the curve)” value in experiment [4] is roughly 0.4 µg/mL. Moreover, the binding result in experiment [7] is listed as “binds”; in experiment [8], “no binding (tested: 10 µg/mL (log 1))”.

B7: huB7002 (afuc) (antibody, human IgG1, kappa, V domains shown)
VH: EVQLVQSGSELKKPGASVKVSCKASGYTFTNYGMNWVRQAPGQGLEWMGWINTYTGEPTYADEFKGRFVFSLDTSVSTAYLQISSLKAEDTAVYYCARGDSFTTEILRNWYFDVWGQGTTVTVSS
VL: DIQMTQSPSSLSASVGDRVTITCGASENIYGALNWYQQKPGKVPKLLIYGATNLADGVPSRFSGSGSGTDFTLTISSLQPEDVATYYCQNVLSTPWTFGGGTKVEIKR
modifications: non-fucosylated (heavy chain not modified by fucosylation)
notes: also called non-fucosylated antibody of huB7002
B7: in experiment [1], the “IC50 (ng/mL), inhibition” value was found to be 19.8 ng/mL and the “Imax (%), maximum inhibition rate” value was determined as 91.7%. For the same molecule, the “IC50 (read off the curve)” value in experiment [4] was roughly 0.4 µg/mL.

B8: huB7002 (antibody, human IgG1, kappa, V domains shown)
VH: EVQLVQSGSELKKPGASVKVSCKASGYTFTNYGMNWVRQAPGQGLEWMGWINTYTGEPTYADEFKGRFVFSLDTSVSTAYLQISSLKAEDTAVYYCARGDSFTTEILRNWYFDVWGQGTTVTVSS
VL: DIQMTQSPSSLSASVGDRVTITCGASENIYGALNWYQQKPGKVPKLLIYGATNLADGVPSRFSGSGSGTDFTLTISSLQPEDVATYYCQNVLSTPWTFGGGTKVEIKR
notes: Humanized IgG1
As to B8, in experiment [1], the “IC50 (ng/mL), inhibition” value was 21 ng/mL and the “Imax (%), maximum inhibition rate” value amounted to 98.7%. Further, in experiment [5], the Kd came out at 0.0286 nM, the koff came to 0.000174 s⁻¹ and the kon was 6.09e+06 M⁻¹ s⁻¹. Besides, the “EC50 (read off the curve)” value in experiment [2] was roughly 0.02 µg/mL. Besides, the binding result in experiment [6] is “binds”. Also, in experiment [4], the “IC50 (read off the curve)” value is roughly 0.4 µg/mL. Also, the “EC50 (read off the curve)” value in experiment [7] is roughly 0.03 µg/mL. For the same molecule, the binding result in experiment [8] is “no binding (tested: 10 µg/mL (log 1))”.
